Laboratory results: the supplement of paper PMC10567573

B1: SCNN1D (parent)
chain: FLGHHSFSVRPGTEATISIREDEV

Variants of: B1
Experiment: protein stability index of a GFP-peptide fusion (GPS, HEK-293T) (PSI 1-6); higher = more stable
Conditions: c terminus: a fixed tail appended
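Further: lentivirally expressed fusions sorted by FACS into six bins by GFP to DsRed ratio, PSI derived from sequencing read proportions per bin multiplied by bin number.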

Variant | protein stability index
FLGHHSFSVRPGTEATISIWEDEV | 1.42
FLGHHSFSVRPGTEATISILEDEV | 1.52
FLGHHSFSVRPGTEATISIQEDEV | 1.79
FLGHHSFSVRPGTEATISISEDEV | 2.27
FLGHHSFSVRPGTEATISIDEDEV | 1.9
FLGHHSFSVRPGTEATISIMEDEV | 1.5
FLGHHSFSVRPGTEATISIPEDEV | 1.79
FLGHHSFSVRPGTEATISIAEDEV | 2.3
FLGHHSFSVRPGTEATISICEDEV | 2.24
FLGHHSFSVRPGTEATISIEEDEV | 2.1
FLGHHSFSVRPGTEATISIFEDEV | 3.02
FLGHHSFSVRPGTEATISIKEDEV | 1.73
FLGHHSFSVRPGTEATISINEDEV | 1.49
FLGHHSFSVRPGTEATISIHEDEV | 1.67
FLGHHSFSVRPGTEATISIYEDEV | 1.77
FLGHHSFSVRPGTEATISIVEDEV | 1.65
FLGHHSFSVRPGTEATISIIEDEV | 2.5
FLGHHSFSVRPGTEATISIGEDEV | 2.3
FLGHHSFSVRPGTEATISITEDEV | 1.79
FLGHHSFSVRPGTEATITIREDEV | 1.66
FLGHHSFSVRPGTEATIIIREDEV | 1.96
FLGHHSFSVRPGTEATIQIREDEV | 1.79
FLGHHSFSVRPGTEATIEIREDEV | 2.49
FLGHHSFSVRPGTEATIGIREDEV | 1.47

Variant | protein stability index
FLGHHSFSVRPGTEATIAIREDEV | 1.6
FLGHHSFSVRPGTEATIKIREDEV | 1.67
FLGHHSFSVRPGTEATIMIREDEV | 1.55
FLGHHSFSVRPGTEATIVIREDEV | 1.25
FLGHHSFSVRPGTEATIDIREDEV | 1.43
FLGHHSFSVRPGTEATIHIREDEV | 1.33
FLGHHSFSVRPGTEATIRIREDEV | 2.22
FLGHHSFSVRPGTEATIPIREDEV | 1.8
FLGHHSFSVRPGTEATIYIREDEV | 1.71
FLGHHSFSVRPGTEATINIREDEV | 1.57
FLGHHSFSVRPGTEATIFIREDEV | 1.8
FLGHHSFSVRPGTEATILIREDEV | 2.2
FLGHHSFSVRPGTETTISIREDEV | 2.31
FLGHHSFSVRPGTEHTISIREDEV | 1.67
FLGHHSFSVRPGTELTISIREDEV | 2.66
FLGHHSFSVRPGTEYTISIREDEV | 1.71
FLGHHSFSVRPGTEMTISIREDEV | 1.58
FLGHHSFSVRPGTERTISIREDEV | 1.88
FLGHHSFSVRPGTECTISIREDEV | 2.34
FLGHHSFSVRPGTEDTISIREDEV | 2.08
FLGHHSFSVRPGTEPTISIREDEV | 2.04
FLGHHSFSVRPGTEVTISIREDEV | 1.47
FLGHHSFSVRPGTEQTISIREDEV | 1.96
FLGHHSFSVRPGTEWTISIREDEV | 3.05

Variant | protein stability index
FLGHHSFSVRPGTENTISIREDEV | 2
FLGHHSFSVRPGTEETISIREDEV | 1.93
FLGHHSFSVRPGTEGTISIREDEV | 2.01
FLGHHSFSVRPGTESTISIREDEV | 2.63
FLGHHSFSVRPGTEITISIREDEV | 1.95
FLGHHSFSVRPGTEFTISIREDEV | 2.62
FLGHHSFSVRPGTEKTISIREDEV | 1.91
FLGHHSFSVRPGTEATESIREDEV | 2.1
FLGHHSFSVRPGTEATWSIREDEV | 1.58
FLGHHSFSVRPGTEATFSIREDEV | 1.36
FLGHHSFSVRPGTEATNSIREDEV | 1.68
FLGHHSFSVRPGTEATASIREDEV | 2.44
FLGHHSFSVRPGTEATDSIREDEV | 2.12
FLGHHSFSVRPGTEATMSIREDEV | 1.75
FLGHHSFSVRPGTEATSSIREDEV | 1.66
FLGHHSFSVRPGTEATGSIREDEV | 2.38
FLGHHSFSVRPGTEATPSIREDEV | 2.19
FLGHHSFSVRPGTEATCSIREDEV | 1.96
FLGHHSFSVRPGTEATYSIREDEV | 2.79
FLGHHSFSVRPGTEATKSIREDEV | 2.32
FLGHHSFSVRPGTEATVSIREDEV | 1.68
FLGHHSFSVRPGTEATQSIREDEV | 2.54
FLGHHSFSVRPGTEATLSIREDEV | 1.62
FLGHHSFSVRPGTEATTSIREDEV | 2.24

Variant | protein stability index
FLGHHSFSVRPGTEATRSIREDEV | 2.07
FLGHHSFSVRPGTEATHSIREDEV | 2.23
FLGHHSFSVRPGTEATISIRTDEV | 2.55
FLGHHSFSVRPGTEATISIRNDEV | 2.11
FLGHHSFSVRPGTEATISIRADEV | 2.25
FLGHHSFSVRPGTEATISIRCDEV | 1.68
FLGHHSFSVRPGTEATISIRFDEV | 2.3
FLGHHSFSVRPGTEATISIRGDEV | 1.33
FLGHHSFSVRPGTEATISIRSDEV | 1.8
FLGHHSFSVRPGTEATISIRWDEV | 2.45
FLGHHSFSVRPGTEATISIRPDEV | 2.33
FLGHHSFSVRPGTEATISIRMDEV | 2.08
FLGHHSFSVRPGTEATISIRRDEV | 2.6
FLGHHSFSVRPGTEATISIRHDEV | 1.48
FLGHHSFSVRPGTEATISIRDDEV | 1.56
FLGHHSFSVRPGTEATISIRIDEV | 3.27
FLGHHSFSVRPGTEATISIRYDEV | 2.52
FLGHHSFSVRPGTEATISIRLDEV | 2.48
FLGHHSFSVRPGTEATISIRKDEV | 1.44
FLGHHSFSVRPGTEATISIRVDEV | 3.42
FLGHHSFSVRPGTEATISIRQDEV | 1.74
FLGHHSFSVRPGTEATISIREDDV | 2.12
